Laboratory results reported in publication PMC4421837.
Values joined by “and” are separate entries in the source; they are usually repeats but may differ in a detail not shown here. Identical values can stand only once. Each block holds one substance with its values, some of them ahead of it.

Columns and labels:
[1] = biological target: K18 tau construct (K18-C291A/C322A/I260C), labelled with AlexaFluor-488 or AlexaFluor-647; test: FRET or BRET; single-molecule FRET of species released from washed A488/A647-K18 filaments: pellet washed four times, fresh 50 mM ammonium acetate pH 7.0 added; aliquots diluted into the same buffer and measured on BSA-treated slides, no flow
[2] = biological target: K18 tau construct (K18-C291A/C322A/I260C), labelled with AlexaFluor-488 or AlexaFluor-647; test: FRET or BRET; single-molecule FRET of oligomers during aggregation: equimolar A488- and A647-labelled construct, 10 uM in all, 50 mM ammonium acetate pH 7.0, 37 °C, undisturbed, heparin (MW 3000) at 1:4 molar ratio; aliquots diluted 50,000-fold into the same buffer with 0.1 mg/ml BSA and 2.5 uM heparin, measured under flow in a microfluidic channel; bursts in the acceptor channel counted as oligomers
[3] = biological target: K18-P301L, labelled with AlexaFluor-488 or AlexaFluor-647; test: as above
[4] = biological target: K18-ΔK280, labelled with AlexaFluor-488 or AlexaFluor-647; test: as above

percent of soluble tau that is oligomeric (immediately after dilution of filaments) [1]: 0.6 to 3%
oligomer concentration (typical) [2]: 5 nM
percent of detected soluble species that are oligomers (after 0.5 h) [2]: 0.1%
Substance: K18 tau construct (K18-C291A/C322A/I260C), labelled with AlexaFluor-488 or AlexaFluor-647 (domain or fragment)

peak oligomer concentration relative to K18-wt [3]: 4 fold and 3 fold
Substance: K18-P301L, labelled with AlexaFluor-488 or AlexaFluor-647 (domain or fragment)

fold more oligomers at peak than for K18 [4]: 50 fold
percent of detected species that are oligomers (at peak, 0.5 h) [4]: 4%
Substance: K18-ΔK280, labelled with AlexaFluor-488 or AlexaFluor-647 (domain or fragment)
